# In paper PMC9482650, “Quantitative fragmentomics allow affinity mapping of interactomes” (Nature Communications, 2022):
# T1: APBA1_2, Q02410
# T1 sequence (Q02410 742-832, limits assumed, looked up): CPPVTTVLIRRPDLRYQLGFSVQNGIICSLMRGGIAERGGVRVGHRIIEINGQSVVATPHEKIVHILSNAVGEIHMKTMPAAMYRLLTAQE
# T2: GRIP1_3, Q9Y3R0
# T2 sequence (Q9Y3R0 247-346, limits assumed, looked up): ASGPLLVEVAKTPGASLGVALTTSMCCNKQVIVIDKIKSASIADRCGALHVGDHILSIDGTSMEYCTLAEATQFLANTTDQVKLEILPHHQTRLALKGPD
# T3: GRIP1_4, Q9Y3R0
# T3 sequence (Q9Y3R0 467-571, limits assumed, looked up): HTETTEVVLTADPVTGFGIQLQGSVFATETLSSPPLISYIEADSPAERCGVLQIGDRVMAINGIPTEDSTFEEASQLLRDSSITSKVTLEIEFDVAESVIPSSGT
# T4: LIN7B, Q9HAP6
# T4 sequence (Q9HAP6 88-185, limits assumed, looked up): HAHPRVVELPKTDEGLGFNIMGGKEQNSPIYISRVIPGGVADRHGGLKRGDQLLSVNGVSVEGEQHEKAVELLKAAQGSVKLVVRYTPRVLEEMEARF
# T5: MPP6, Q9NZW5
# T5 sequence (Q9NZW5 125-219, limits assumed, looked up): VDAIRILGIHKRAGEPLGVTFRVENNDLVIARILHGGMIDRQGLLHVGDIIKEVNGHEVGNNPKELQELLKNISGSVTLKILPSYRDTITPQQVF
# T6: MPP7, Q5T2T1
# T6 sequence (Q5T2T1 134-230, limits assumed, looked up): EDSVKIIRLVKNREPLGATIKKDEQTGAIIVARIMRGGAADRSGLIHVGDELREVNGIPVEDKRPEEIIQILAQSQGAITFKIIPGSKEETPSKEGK
# T7: NHERF3_4, Q5T2W1
# T7 sequence (Q5T2W1 373-468, limits assumed, looked up): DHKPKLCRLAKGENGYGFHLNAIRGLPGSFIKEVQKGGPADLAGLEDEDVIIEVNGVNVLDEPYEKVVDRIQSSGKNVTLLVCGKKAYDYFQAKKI
# T8: PCLO, Q9Y6V0
# T8 sequence (Q9Y6V0 4491-4600, limits assumed, looked up): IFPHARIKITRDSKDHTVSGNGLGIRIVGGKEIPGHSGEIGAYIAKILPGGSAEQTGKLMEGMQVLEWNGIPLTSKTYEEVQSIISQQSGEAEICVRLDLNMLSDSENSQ
# T9: PDZD2_2, O15018
# T9 sequence (O15018 329-429, limits assumed, looked up): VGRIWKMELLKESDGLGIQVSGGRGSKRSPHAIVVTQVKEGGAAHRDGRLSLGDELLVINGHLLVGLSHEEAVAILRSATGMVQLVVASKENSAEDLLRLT
# T10: PDZD7_3, Q9H5P4
# T10 sequence (Q9H5P4 857-944, limits assumed, looked up): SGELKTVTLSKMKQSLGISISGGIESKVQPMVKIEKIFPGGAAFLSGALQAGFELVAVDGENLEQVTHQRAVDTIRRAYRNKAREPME
# T11: RADIL, Q96JH8
# T11 sequence (Q96JH8 971-1071, limits assumed, looked up): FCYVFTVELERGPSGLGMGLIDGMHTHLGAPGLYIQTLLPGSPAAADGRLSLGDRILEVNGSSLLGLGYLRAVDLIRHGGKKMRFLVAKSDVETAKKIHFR
# Columns and labels:
# Assay in all cases: holdup assay
# Design in all cases: key: below the threshold = too weak to quantify, mostly under pKd 3.1 to 4
# [1] = molecular target: T1, APBA1_2, Q02410
# [2] = molecular target: CASK, O14936
# [3] = molecular target: DLG1_1, Q12959
# [4] = molecular target: DLG4_3, P78352
# [5] = molecular target: FRMPD2_1, Q68DX3
# [6] = molecular target: FRMPD2_2, Q68DX3
# [7] = molecular target: FRMPD2_3, Q68DX3
# [8] = molecular target: GIPC2, Q8TF65; details: plain residues with an end cap or a label only (N-terminal biotin on a linker: ahx)
# [9] = molecular target: GORASP1, Q9BQQ3
# [10] = molecular target: T2, GRIP1_3, Q9Y3R0
# [11] = molecular target: T3, GRIP1_4, Q9Y3R0
# [12] = molecular target: GRIP2_6, Q9C0E4
# [13] = molecular target: GRIP2_7, Q9C0E4
# [14] = molecular target: Inadl_2, Q8NI35
# [15] = molecular target: LAP2, Q96RT1
# [16] = molecular target: T4, LIN7B, Q9HAP6
# [17] = molecular target: LNX1_1, Q8TBB1
# [18] = molecular target: LNX1_3, Q8TBB1
# [19] = molecular target: MAGI1_2, Q96QZ7
# [20] = molecular target: MAGI2_4, Q86UL8
# [21] = molecular target: T5, MPP6, Q9NZW5
# [22] = molecular target: T6, MPP7, Q5T2T1
# [23] = molecular target: T7, NHERF3_4, Q5T2W1
# [24] = molecular target: T8, PCLO, Q9Y6V0
# [25] = molecular target: T9, PDZD2_2, O15018
# [26] = molecular target: T10, PDZD7_3, Q9H5P4
# [27] = molecular target: T11, RADIL, Q96JH8
# [28] = plain residues with an end cap or a label only (N-terminal biotin on a linker: ahx)
# [29] = plain residues with an end cap or a label only (N-terminal biotin on a linker: ttds)
# Sequence of DLG4_3, P78352 (P78352 306-403): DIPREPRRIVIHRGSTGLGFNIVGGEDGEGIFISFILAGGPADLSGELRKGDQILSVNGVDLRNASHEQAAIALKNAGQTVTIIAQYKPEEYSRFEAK
# Sequence of GORASP1, Q9BQQ3 (Q9BQQ3 1-208): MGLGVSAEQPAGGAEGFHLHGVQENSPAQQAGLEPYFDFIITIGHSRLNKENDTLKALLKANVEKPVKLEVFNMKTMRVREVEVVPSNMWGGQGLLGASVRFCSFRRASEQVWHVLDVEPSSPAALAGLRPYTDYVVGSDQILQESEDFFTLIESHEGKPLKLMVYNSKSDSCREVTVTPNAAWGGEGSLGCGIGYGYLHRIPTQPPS
# Sequence of FRMPD2_1, Q68DX3 (Q68DX3 770-861): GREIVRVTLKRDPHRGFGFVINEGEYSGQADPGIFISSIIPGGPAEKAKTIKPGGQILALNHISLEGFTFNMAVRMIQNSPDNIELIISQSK
# Sequence of GRIP2_7, Q9C0E4 (Q9C0E4 934-1023): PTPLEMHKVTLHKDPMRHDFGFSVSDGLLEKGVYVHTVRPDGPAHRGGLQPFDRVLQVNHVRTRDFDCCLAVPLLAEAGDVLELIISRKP
# Sequence of LAP2, Q96RT1 (Q96RT1 other isoform, or with tags, fused parts or gaps): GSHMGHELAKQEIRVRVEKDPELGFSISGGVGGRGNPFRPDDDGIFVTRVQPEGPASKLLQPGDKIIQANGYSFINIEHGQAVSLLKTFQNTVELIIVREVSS
# Sequence of FRMPD2_2, Q68DX3 (Q68DX3 944-1038): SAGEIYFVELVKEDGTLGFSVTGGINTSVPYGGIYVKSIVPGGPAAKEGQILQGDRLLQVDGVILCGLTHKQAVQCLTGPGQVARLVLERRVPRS
# Sequence of LNX1_3, Q8TBB1 (Q8TBB1 500-596): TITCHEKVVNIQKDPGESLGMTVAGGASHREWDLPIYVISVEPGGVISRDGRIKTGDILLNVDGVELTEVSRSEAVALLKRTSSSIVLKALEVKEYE
# Sequence of CASK, O14936 (O14936 487-570): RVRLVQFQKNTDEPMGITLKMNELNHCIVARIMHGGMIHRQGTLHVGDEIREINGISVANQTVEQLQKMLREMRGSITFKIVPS
# Sequence of MAGI2_4, Q86UL8 (Q86UL8 772-865): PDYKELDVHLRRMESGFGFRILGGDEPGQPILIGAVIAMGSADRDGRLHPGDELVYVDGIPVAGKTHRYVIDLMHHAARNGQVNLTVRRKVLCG
# Sequence of GRIP2_6, Q9C0E4 (Q9C0E4 648-740): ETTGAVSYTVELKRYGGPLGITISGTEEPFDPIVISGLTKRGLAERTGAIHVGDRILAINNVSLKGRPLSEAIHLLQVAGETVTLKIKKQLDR
# Sequence of Inadl_2, Q8NI35 (Q8NI35 238-335): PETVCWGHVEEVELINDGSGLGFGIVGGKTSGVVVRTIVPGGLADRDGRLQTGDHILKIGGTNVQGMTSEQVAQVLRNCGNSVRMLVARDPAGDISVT
# Sequence of FRMPD2_3, Q68DX3 (Q68DX3 1073-1166): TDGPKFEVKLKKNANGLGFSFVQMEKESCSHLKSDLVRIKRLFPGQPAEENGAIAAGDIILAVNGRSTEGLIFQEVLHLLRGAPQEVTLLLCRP
# Sequence of LNX1_1, Q8TBB1 (Q8TBB1 261-371): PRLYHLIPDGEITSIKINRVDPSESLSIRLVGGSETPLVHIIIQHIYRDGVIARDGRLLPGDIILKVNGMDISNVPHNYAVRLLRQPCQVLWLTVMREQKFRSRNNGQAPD
# Sequence of MAGI1_2, Q96QZ7 (Q96QZ7 456-580): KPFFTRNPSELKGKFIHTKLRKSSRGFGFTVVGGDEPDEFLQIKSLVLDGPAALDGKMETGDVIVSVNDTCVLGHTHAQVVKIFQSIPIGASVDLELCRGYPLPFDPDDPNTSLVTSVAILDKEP
# Sequence of GIPC2, Q8TF65 (Q8TF65 112-203): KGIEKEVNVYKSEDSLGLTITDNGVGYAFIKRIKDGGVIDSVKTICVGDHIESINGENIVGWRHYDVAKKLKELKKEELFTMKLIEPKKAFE
binder,measurement,setting,value
"KKNKDKEYYV [NRXN1, Q9ULB1]",pKd,[1]; [28],3.62
same,pKd,[2]; [28],below the threshold
same,pKd,[3]; [28],below the threshold
same,pKd,[4]; [28],below the threshold
same,pKd,[5]; [28],below the threshold
same,pKd,[6]; [28],below the threshold
same,pKd,[7]; [28],4.17
same,pKd,[8],below the threshold
same,pKd,[9]; [28],3.8
same,pKd,[10]; [28],below the threshold
same,pKd,[11]; [28],below the threshold
same,pKd,[12]; [28],3.91
same,pKd,[13]; [28],4.55
same,pKd,[14]; [28],4.55
same,pKd,[15]; [28],below the threshold
same,pKd,[16]; [28],below the threshold
same,pKd,[17]; [28],below the threshold
same,pKd,[18]; [28],below the threshold
same,pKd,[19]; [28],below the threshold
same,pKd,[20]; [28],below the threshold
same,pKd,[21]; [28],below the threshold
same,pKd,[22]; [28],4.29
same,pKd,[23]; [28],below the threshold
same,pKd,[24]; [28],below the threshold
same,pKd,[25]; [28],3.99
same,pKd,[26]; [28],below the threshold
same,pKd,[27]; [28],4.2
"DEDQHTQITKV [PTEN, P60484]",pKd,[1]; [29],4.02
same,pKd,[2]; [29],3.47
same,pKd,[3]; [29],3.64
same,pKd,[4]; [29],3.56
same,pKd,[5]; [29],below the threshold
same,pKd,[6]; [29],4.19
same,pKd,[7]; [29],below the threshold
same,pKd,[9]; [29],3.88
same,pKd,[10]; [29],below the threshold
same,pKd,[11]; [29],below the threshold
same,pKd,[12]; [29],3.49
same,pKd,[13]; [29],3.55
same,pKd,[14]; [29],below the threshold
same,pKd,[15]; [29],3.82
same,pKd,[16]; [29],3.49
same,pKd,[17]; [29],below the threshold
same,pKd,[18]; [29],below the threshold
same,pKd,[19]; [29],below the threshold
same,pKd,[20]; [29],3.64
same,pKd,[21]; [29],below the threshold
same,pKd,[22]; [29],below the threshold
same,pKd,[23]; [29],3.53
same,pKd,[24]; [29],below the threshold
same,pKd,[25]; [29],3.71
same,pKd,[26]; [29],5.1
same,pKd,[27]; [29],3.91
"LCKSHAFSHV [PDLIM7, Q9NR12;Q9NR12-1]",pKd,[2]; [28],below the threshold
same,pKd,[3]; [28],below the threshold
same,pKd,[4]; [28],below the threshold
same,pKd,[5]; [28],below the threshold
same,pKd,[6]; [28],below the threshold
same,pKd,[7]; [28],below the threshold
same,pKd,[9]; [28],below the threshold
same,pKd,[10]; [28],below the threshold
same,pKd,[11]; [28],below the threshold
same,pKd,[12]; [28],below the threshold
same,pKd,[13]; [28],below the threshold
same,pKd,[14]; [28],below the threshold
same,pKd,[15]; [28],below the threshold
same,pKd,[16]; [28],below the threshold
same,pKd,[18]; [28],below the threshold
same,pKd,[20]; [28],below the threshold
same,pKd,[21]; [28],below the threshold
same,pKd,[22]; [28],below the threshold
same,pKd,[23]; [28],below the threshold
same,pKd,[24]; [28],below the threshold
same,pKd,[25]; [28],4.54
same,pKd,[26]; [28],below the threshold
same,pKd,[27]; [28],3.99
